Measurements: article PMC9482650, “Quantitative fragmentomics allow affinity mapping of interactomes” (Nature Communications, 2022)

Assays:
Assay in all cases: holdup assay
Design in all cases: key: below the threshold = too weak to quantify, mostly under pKd 3.1 to 4
APBA2_1, Q99767 = target: T1, APBA2_1, Q99767
T1 sequence (Q99767 563-664, limits assumed, looked up): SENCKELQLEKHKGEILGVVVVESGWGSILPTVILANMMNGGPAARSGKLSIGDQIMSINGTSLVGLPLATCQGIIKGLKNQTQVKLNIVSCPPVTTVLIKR

ARHGEF11, O15085 = target: T2, ARHGEF11, O15085
T2 sequence (O15085 42-136, limits assumed, looked up): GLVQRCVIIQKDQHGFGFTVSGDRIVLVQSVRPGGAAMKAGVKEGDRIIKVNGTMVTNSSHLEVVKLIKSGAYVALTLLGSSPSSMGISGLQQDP

DLG1_1, Q12959 = target: DLG1_1, Q12959
DLG3_1, Q92796 = target: T3, DLG3_1, Q92796
T3 sequence (Q92796 125-227, limits assumed, looked up): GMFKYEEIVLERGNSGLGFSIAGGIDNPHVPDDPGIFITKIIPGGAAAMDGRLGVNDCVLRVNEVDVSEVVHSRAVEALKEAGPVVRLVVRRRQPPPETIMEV

DLG4_1, P78352 = target: DLG4_1, P78352
DVL3, Q92997 = target: T4, DVL3, Q92997
T4 sequence (Q92997 244-331, limits assumed, looked up): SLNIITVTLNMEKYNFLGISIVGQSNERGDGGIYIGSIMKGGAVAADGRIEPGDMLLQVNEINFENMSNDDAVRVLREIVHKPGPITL

FRMPD2_3, Q68DX3 = target: FRMPD2_3, Q68DX3
FRMPD4, Q14CM0 = target: FRMPD4, Q14CM0
GRIP1_3, Q9Y3R0 = target: T5, GRIP1_3, Q9Y3R0
T5 sequence (Q9Y3R0 247-346, limits assumed, looked up): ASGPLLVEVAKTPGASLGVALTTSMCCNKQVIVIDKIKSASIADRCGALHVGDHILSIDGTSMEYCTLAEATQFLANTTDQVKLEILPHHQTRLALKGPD

GRIP1_5, Q9Y3R0 = target: T6, GRIP1_5, Q9Y3R0
T6 sequence (Q9Y3R0 568-668, limits assumed, looked up): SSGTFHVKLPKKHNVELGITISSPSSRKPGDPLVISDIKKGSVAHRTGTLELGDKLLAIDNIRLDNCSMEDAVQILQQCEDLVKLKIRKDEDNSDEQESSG

GRIP2_5, Q9C0E4 = target: GRIP2_5, Q9C0E4
HTRA4, P83105 = target: T7, HTRA4, P83105
T7 sequence (P83105 378-476, limits assumed, looked up): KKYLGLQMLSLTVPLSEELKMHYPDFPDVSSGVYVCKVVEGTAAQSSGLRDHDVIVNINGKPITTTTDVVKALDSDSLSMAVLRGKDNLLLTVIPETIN

Inadl_2, Q8NI35 = target: Inadl_2, Q8NI35
Inadl_4, Q8NI35 = target: Inadl_4, Q8NI35
Inadl_5, Q8NI35 = target: Inadl_5, Q8NI35
Inadl_6, Q8NI35 = target: Inadl_6, Q8NI35
LDB3, O75112 = target: LDB3, O75112
LNX2_2, Q8N448 = target: T8, LNX2_2, Q8N448
T8 sequence (Q8N448 334-432, limits assumed, looked up): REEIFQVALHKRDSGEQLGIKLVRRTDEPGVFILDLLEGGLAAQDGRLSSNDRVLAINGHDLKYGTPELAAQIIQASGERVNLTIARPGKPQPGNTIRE

MAGI1_1, Q96QZ7 = target: MAGI1_1, Q96QZ7
MAGI1_2, Q96QZ7 = target: MAGI1_2, Q96QZ7
MAGI2_6, Q86UL8 = target: MAGI2_6, Q86UL8
NHERF3_1, Q5T2W1 = target: T9, NHERF3_1, Q5T2W1
T9 sequence (Q5T2W1 4-100, limits assumed, looked up): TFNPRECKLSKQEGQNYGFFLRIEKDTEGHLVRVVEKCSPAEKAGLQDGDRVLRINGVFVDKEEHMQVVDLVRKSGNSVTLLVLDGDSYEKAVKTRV

PDZRN4_1, Q6ZMN7 = target: PDZRN4_1, Q6ZMN7
RHPN1, Q8TCX5 = target: T10, RHPN1, Q8TCX5
T10 sequence (Q8TCX5 508-602, limits assumed, looked up): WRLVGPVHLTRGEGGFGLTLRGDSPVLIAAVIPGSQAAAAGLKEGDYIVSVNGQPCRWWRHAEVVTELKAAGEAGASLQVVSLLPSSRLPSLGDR

SNTG1, Q9NSN8 = target: T11, SNTG1, Q9NSN8
T11 sequence (Q9NSN8 52-150, limits assumed, looked up): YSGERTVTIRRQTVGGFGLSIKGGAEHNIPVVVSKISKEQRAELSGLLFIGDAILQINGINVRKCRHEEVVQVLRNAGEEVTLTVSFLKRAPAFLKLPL

TJP2_1, Q9UDY2 = target: TJP2_1, Q9UDY2
MAGI2_4, Q86UL8 = conditions: plain residues with an end cap or a label only (N-terminal biotin on a linker: ttds)
[1] = plain residues with an end cap or a label only (N-terminal biotin on a linker: ahx)
[2] = plain residues with an end cap or a label only (N-terminal biotin on a linker: ttds)

Sequence of MAGI1_2, Q96QZ7 (Q96QZ7 456-580): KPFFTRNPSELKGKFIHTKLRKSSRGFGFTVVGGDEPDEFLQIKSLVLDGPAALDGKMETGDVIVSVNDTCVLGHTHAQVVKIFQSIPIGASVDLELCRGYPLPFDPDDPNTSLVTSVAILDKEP
Sequence of Inadl_4, Q8NI35 (Q8NI35 547-651): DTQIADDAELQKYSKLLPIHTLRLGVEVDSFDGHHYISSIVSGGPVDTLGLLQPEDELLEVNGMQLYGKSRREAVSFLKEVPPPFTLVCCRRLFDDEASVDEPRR
Sequence of Inadl_6, Q8NI35 (Q8NI35 1058-1167): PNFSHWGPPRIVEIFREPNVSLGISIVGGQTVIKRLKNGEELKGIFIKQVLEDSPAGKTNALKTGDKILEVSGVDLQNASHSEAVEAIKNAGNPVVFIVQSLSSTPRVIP
Sequence of MAGI2_6, Q86UL8 (Q86UL8 1141-1229): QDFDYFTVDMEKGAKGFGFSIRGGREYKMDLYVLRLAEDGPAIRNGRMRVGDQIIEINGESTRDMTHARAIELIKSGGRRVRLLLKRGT
Sequence of Inadl_5, Q8NI35 (Q8NI35 673-780): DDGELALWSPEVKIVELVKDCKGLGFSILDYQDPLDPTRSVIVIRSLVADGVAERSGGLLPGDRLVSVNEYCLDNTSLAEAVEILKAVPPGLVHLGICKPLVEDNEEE
Sequence of Inadl_2, Q8NI35 (Q8NI35 238-335): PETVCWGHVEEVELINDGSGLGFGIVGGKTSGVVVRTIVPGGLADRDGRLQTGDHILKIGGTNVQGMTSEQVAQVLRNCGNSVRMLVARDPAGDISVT
Sequence of PDZRN4_1, Q6ZMN7 (Q6ZMN7 213-318): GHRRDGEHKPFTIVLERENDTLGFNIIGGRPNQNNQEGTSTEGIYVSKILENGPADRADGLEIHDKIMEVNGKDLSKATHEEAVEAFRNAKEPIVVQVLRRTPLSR
Sequence of GRIP2_5, Q9C0E4 (Q9C0E4 544-642): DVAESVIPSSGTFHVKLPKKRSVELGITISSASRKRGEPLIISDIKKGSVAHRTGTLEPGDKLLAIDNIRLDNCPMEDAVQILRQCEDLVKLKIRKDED
Sequence of DLG4_1, P78352 (P78352 62-152): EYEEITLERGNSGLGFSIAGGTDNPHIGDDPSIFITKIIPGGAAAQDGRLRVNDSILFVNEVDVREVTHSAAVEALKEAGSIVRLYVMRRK
Sequence of TJP2_1, Q9UDY2 (Q9UDY2 24-128): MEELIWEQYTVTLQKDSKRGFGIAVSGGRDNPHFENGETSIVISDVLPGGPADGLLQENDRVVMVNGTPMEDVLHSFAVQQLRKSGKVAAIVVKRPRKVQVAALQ
Sequence of MAGI1_1, Q96QZ7 (Q96QZ7 1-106): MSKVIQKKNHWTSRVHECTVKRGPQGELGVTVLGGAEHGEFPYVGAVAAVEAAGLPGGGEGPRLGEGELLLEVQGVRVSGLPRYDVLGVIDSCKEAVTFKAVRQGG
Sequence of FRMPD2_3, Q68DX3 (Q68DX3 1073-1166): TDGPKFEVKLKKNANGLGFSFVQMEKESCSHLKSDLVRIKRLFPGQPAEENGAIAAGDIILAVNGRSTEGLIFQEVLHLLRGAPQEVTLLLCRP
Sequence of MAGI2_4, Q86UL8 (Q86UL8 772-865): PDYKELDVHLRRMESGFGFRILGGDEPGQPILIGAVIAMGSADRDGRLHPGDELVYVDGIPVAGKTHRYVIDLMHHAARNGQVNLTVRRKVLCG
Sequence of FRMPD4, Q14CM0 (Q14CM0 67-160): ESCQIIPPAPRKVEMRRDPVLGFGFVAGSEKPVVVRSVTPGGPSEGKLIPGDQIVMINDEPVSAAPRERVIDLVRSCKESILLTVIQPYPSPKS
Sequence of LDB3, O75112 (O75112 1-94): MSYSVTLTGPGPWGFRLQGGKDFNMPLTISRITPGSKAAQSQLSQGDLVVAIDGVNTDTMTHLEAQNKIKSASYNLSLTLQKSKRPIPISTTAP

With LSDPSVSTVV [GRIN1, Q05586;Q05586-2] the pKd (APBA2_1, Q99767; [1]) was “below the threshold”, the pKd (ARHGEF11, O15085; [1]) was 4.01 and the pKd (DLG1_1, Q12959; [1]) was 4.06. For the same binder, the pKd (DLG3_1, Q92796; [1]) was “below the threshold”, the pKd (DLG4_1, P78352; [1]) was 4.1 and the pKd (DVL3, Q92997; [1]) was “below the threshold”. For the same binder, the pKd (FRMPD2_3, Q68DX3; [1]) was “below the threshold”, the pKd (FRMPD4, Q14CM0; [1]) was “below the threshold” and the pKd (GRIP1_3, Q9Y3R0; [1]) was “below the threshold”. The pKd (GRIP1_5, Q9Y3R0; [1]) was “below the threshold”, the pKd (GRIP2_5, Q9C0E4; [1]) was “below the threshold” and the pKd (HTRA4, P83105; [1]) was “below the threshold”. For the same binder, the pKd (Inadl_2, Q8NI35; [1]) was “below the threshold”, the pKd (Inadl_4, Q8NI35; [1]) was “below the threshold” and the pKd (Inadl_5, Q8NI35; [1]) was “below the threshold”. For the same binder, the pKd (Inadl_6, Q8NI35; [1]) was “below the threshold”, the pKd (LDB3, O75112; [1]) was “below the threshold” and the pKd (LNX2_2, Q8N448; [1]) was 4.64. For the same binder, the pKd (MAGI1_1, Q96QZ7; [1]) was “below the threshold”, the pKd (MAGI1_2, Q96QZ7; [1]) was “below the threshold” and the pKd (MAGI2_6, Q86UL8; [1]) was “below the threshold”. The pKd (NHERF3_1, Q5T2W1; [1]) was “below the threshold”, the pKd (PDZRN4_1, Q6ZMN7; [1]) was “below the threshold” and the pKd (RHPN1, Q8TCX5; [1]) was 4.47. For the same binder, the pKd (SNTG1, Q9NSN8; [1]) was “below the threshold” and the pKd (TJP2_1, Q9UDY2; [1]) was “below the threshold”.

In the case of PRVKPQRSKV [PPP1R13L, Q8WUF5], the pKd (APBA2_1, Q99767; [2]) is reported as “below the threshold”, the pKd (ARHGEF11, O15085; [2]) is reported as 3.64 and the pKd (DLG1_1, Q12959; [2]) is reported as “below the threshold”. For the same binder, the pKd (DLG3_1, Q92796; [2]) was “below the threshold”, the pKd (DLG4_1, P78352; [2]) was 3.54 and the pKd (DVL3, Q92997; [2]) was “below the threshold”. For the same binder, the pKd (FRMPD2_3, Q68DX3; [2]) was “below the threshold”, the pKd (FRMPD4, Q14CM0; [2]) was “below the threshold” and the pKd (GRIP1_3, Q9Y3R0; [2]) was “below the threshold”. The pKd (GRIP1_5, Q9Y3R0; [2]) was 3.65, the pKd (GRIP2_5, Q9C0E4; [2]) was “below the threshold” and the pKd (HTRA4, P83105; [2]) was “below the threshold”. The pKd (Inadl_2, Q8NI35; [2]) was “below the threshold”, the pKd (Inadl_4, Q8NI35; [2]) was “below the threshold” and the pKd (Inadl_5, Q8NI35; [2]) was “below the threshold”. For the same binder, the pKd (Inadl_6, Q8NI35; [2]) was “below the threshold”, the pKd (LDB3, O75112; [2]) was “below the threshold” and the pKd (LNX2_2, Q8N448; [2]) was “below the threshold”. For the same binder, the pKd (MAGI1_1, Q96QZ7; [2]) was “below the threshold”, the pKd (MAGI1_2, Q96QZ7; [2]) was 3.72 and the pKd (MAGI2_4, Q86UL8) was “below the threshold”. For the same binder, the pKd (MAGI2_6, Q86UL8; [2]) was “below the threshold”, the pKd (NHERF3_1, Q5T2W1; [2]) was “below the threshold” and the pKd (PDZRN4_1, Q6ZMN7; [2]) was “below the threshold”. The pKd (RHPN1, Q8TCX5; [2]) was “below the threshold”, the pKd (SNTG1, Q9NSN8; [2]) was “below the threshold” and the pKd (TJP2_1, Q9UDY2; [2]) was “below the threshold”.

For NDPAWDETNL [ARHGEF7, Q14155;Q14155-1], the pKd (APBA2_1, Q99767; [2]) was “below the threshold”, the pKd (DLG1_1, Q12959; [2]) was “below the threshold” and the pKd (DLG3_1, Q92796; [2]) was “below the threshold”. The pKd (DLG4_1, P78352; [2]) was “below the threshold”, the pKd (DVL3, Q92997; [2]) was “below the threshold” and the pKd (FRMPD2_3, Q68DX3; [2]) was “below the threshold”. The pKd (FRMPD4, Q14CM0; [2]) was 4.66, the pKd (GRIP1_3, Q9Y3R0; [2]) was “below the threshold” and the pKd (GRIP1_5, Q9Y3R0; [2]) was “below the threshold”. The pKd (GRIP2_5, Q9C0E4; [2]) was “below the threshold”, the pKd (HTRA4, P83105; [2]) was “below the threshold” and the pKd (Inadl_2, Q8NI35; [2]) was “below the threshold”. For the same binder, the pKd (Inadl_4, Q8NI35; [2]) was “below the threshold”, the pKd (Inadl_5, Q8NI35; [2]) was “below the threshold” and the pKd (Inadl_6, Q8NI35; [2]) was 4.09. The pKd (LDB3, O75112; [2]) was “below the threshold”, the pKd (LNX2_2, Q8N448; [2]) was “below the threshold” and the pKd (MAGI1_1, Q96QZ7; [2]) was “below the threshold”. For the same binder, the pKd (MAGI1_2, Q96QZ7; [2]) was “below the threshold”, the pKd (MAGI2_4, Q86UL8) was “below the threshold” and the pKd (MAGI2_6, Q86UL8; [2]) was 3.92. For the same binder, the pKd (NHERF3_1, Q5T2W1; [2]) was 4.26, the pKd (PDZRN4_1, Q6ZMN7; [2]) was 3.98 and the pKd (RHPN1, Q8TCX5; [2]) was 4.6. For the same binder, the pKd (SNTG1, Q9NSN8; [2]) was 4.26 and the pKd (TJP2_1, Q9UDY2; [2]) was “below the threshold”.

EMDRRPATVV [PLCB4, Q15147] was tested, and the pKd (APBA2_1, Q99767; [2]) was “below the threshold”, the pKd (ARHGEF11, O15085; [2]) was 4.6 and the pKd (DLG1_1, Q12959; [2]) was 4.2. For the same binder, the pKd (DLG3_1, Q92796; [2]) was “below the threshold”, the pKd (DLG4_1, P78352; [2]) was 4.13 and the pKd (DVL3, Q92997; [2]) was “below the threshold”. The pKd (FRMPD2_3, Q68DX3; [2]) was 4.01, the pKd (FRMPD4, Q14CM0; [2]) was 3.55 and the pKd (GRIP1_3, Q9Y3R0; [2]) was “below the threshold”. The pKd (GRIP1_5, Q9Y3R0; [2]) was “below the threshold”, the pKd (GRIP2_5, Q9C0E4; [2]) was “below the threshold” and the pKd (HTRA4, P83105; [2]) was 3.6. The pKd (LDB3, O75112; [2]) was “below the threshold”, the pKd (LNX2_2, Q8N448; [2]) was 4.93 and the pKd (MAGI1_1, Q96QZ7; [2]) was “below the threshold”. The pKd (MAGI1_2, Q96QZ7; [2]) was “below the threshold”, the pKd (MAGI2_4, Q86UL8) was 3.77 and the pKd (MAGI2_6, Q86UL8; [2]) was “below the threshold”. The pKd (PDZRN4_1, Q6ZMN7; [2]) was 3.91, the pKd (RHPN1, Q8TCX5; [2]) was 3.74 and the pKd (SNTG1, Q9NSN8; [2]) was “below the threshold”. For the same binder, the pKd (TJP2_1, Q9UDY2; [2]) was “below the threshold”.
